Reference: publication PMC314469, “Protein Interaction Networks by Proteome Peptide Scanning” (PLoS Biology, 2004)

T1: Rvs167 SH3 (RV167_YEAST), P39743
T1 chain: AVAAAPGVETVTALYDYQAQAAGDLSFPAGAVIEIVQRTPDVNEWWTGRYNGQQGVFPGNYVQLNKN

T2: Boi1 SH3 (BOI1_YEAST), P38041
T2 chain: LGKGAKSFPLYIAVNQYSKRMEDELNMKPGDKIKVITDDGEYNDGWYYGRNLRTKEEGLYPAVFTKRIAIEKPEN

T3: Yhr016c SH3 (YSC84_YEAST), P32793
T3 chain: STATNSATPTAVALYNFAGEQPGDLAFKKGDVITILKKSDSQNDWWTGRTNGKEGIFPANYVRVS

T4: Boi2 SH3 (BOI2_YEAST), P39969
T4 chain: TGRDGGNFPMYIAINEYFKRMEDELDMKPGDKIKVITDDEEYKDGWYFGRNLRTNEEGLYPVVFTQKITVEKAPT

T5: Myo5 SH3 (MYO5_YEAST), Q04439
T5 chain: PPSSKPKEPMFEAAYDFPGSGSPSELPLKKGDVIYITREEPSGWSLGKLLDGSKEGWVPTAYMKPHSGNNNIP

T6: Yfr024 SH3 (LSB3_YEAST), P43603
T6 chain: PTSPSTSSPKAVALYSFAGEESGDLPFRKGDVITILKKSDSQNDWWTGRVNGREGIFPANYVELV


Target: T1, Rvs167 SH3 (RV167_YEAST), P39743
Assay: SPOT array

Row | Binder | normalised SPOT signal, Boehringer light units (BLU); mean over the file's lines of this peptide
1 | ATEAKSLPKIPSIP [YPL176C 343-356] | 47.7
2 | APVVKSEPSLPRMR [YJL083W 57-70] | 70.8
3 | ALWAKFFPEKPLNI [YGR024C 111-124] | 50.7
4 | AMESRVAPEIPGLI [YGL130W 4-17] | 60.5
5 | ASFRKTKPPPPLDF [YAL017W 81-94] | 48.5
6 | AQKLKLLPEEPFQR [YDL001W 74-87] | 76.9
7 | AVGGKWEPGNPIAI [YHR113W 80-93] | 39.6
8 | AVLIRADPLNPKVV [YCR028C 355-368] | 12.9
9 | ATVVKNSPGDPELF [YNL187W 329-342] | 28.9
10 | ALSTKGYPHEPPLL [YGR172C 61-74] | 63.8
11 | APPPKEEPAAPTST [YGR162W 923-936] | 15.9
12 | ATGKRKLPGWPSAD [YIL165C 34-47] | 80.9
13 | ASKHKMFPFNPAKI [YLR115W 531-544] | 80.6
14 | ATKRKTIPVYPPVQ [YCR046C 20-33] | 49.7

Target: T2, Boi1 SH3 (BOI1_YEAST), P38041
Assay: SPOT array

Row | Binder | normalised SPOT signal, Boehringer light units (BLU); mean over the file's lines of this peptide
15 | ATEAKSLPKIPSIP [YPL176C 343-356] | 108
16 | APVVKSEPSLPRMR [YJL083W 57-70] | 1950
17 | ALWAKFFPEKPLNI [YGR024C 111-124] | 103
18 | AMESRVAPEIPGLI [YGL130W 4-17] | 82.6
19 | ASFRKTKPPPPLDF [YAL017W 81-94] | 1950
20 | AQKLKLLPEEPFQR [YDL001W 74-87] | 713
21 | AVGGKWEPGNPIAI [YHR113W 80-93] | 41.1
22 | AVLIRADPLNPKVV [YCR028C 355-368] | 15.3
23 | ATVVKNSPGDPELF [YNL187W 329-342] | 644
24 | ALSTKGYPHEPPLL [YGR172C 61-74] | 193
25 | APPPKEEPAAPTST [YGR162W 923-936] | 76.3
26 | ATGKRKLPGWPSAD [YIL165C 34-47] | 127
27 | ASKHKMFPFNPAKI [YLR115W 531-544] | 349
28 | ATKRKTIPVYPPVQ [YCR046C 20-33] | 263

Target: Sho1 SH3 (SHO1_YEAST), P40073
Sequence (P40073 295-366): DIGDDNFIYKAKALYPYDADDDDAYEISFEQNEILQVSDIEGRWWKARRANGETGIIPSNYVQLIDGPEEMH
Assay: SPOT array

Row | Binder | normalised SPOT signal, Boehringer light units (BLU); mean over the file's lines of this peptide
29 | ATEAKSLPKIPSIP [YPL176C 343-356] | 19100
30 | APVVKSEPSLPRMR [YJL083W 57-70] | 49.7
31 | ALWAKFFPEKPLNI [YGR024C 111-124] | 115
32 | AMESRVAPEIPGLI [YGL130W 4-17] | 47.7
33 | ASFRKTKPPPPLDF [YAL017W 81-94] | 19.5
34 | AQKLKLLPEEPFQR [YDL001W 74-87] | 3780
35 | AVGGKWEPGNPIAI [YHR113W 80-93] | 0
36 | AVLIRADPLNPKVV [YCR028C 355-368] | 13.9
37 | ATVVKNSPGDPELF [YNL187W 329-342] | 51.1
38 | ALSTKGYPHEPPLL [YGR172C 61-74] | 35.4
39 | APPPKEEPAAPTST [YGR162W 923-936] | 37.7
40 | ATGKRKLPGWPSAD [YIL165C 34-47] | 52.8
41 | ASKHKMFPFNPAKI [YLR115W 531-544] | 65.5
42 | ATKRKTIPVYPPVQ [YCR046C 20-33] | 30.2

Target: T3, Yhr016c SH3 (YSC84_YEAST), P32793
Assay: SPOT array

Row | Binder | normalised SPOT signal, Boehringer light units (BLU); mean over the file's lines of this peptide
43 | ATEAKSLPKIPSIP [YPL176C 343-356] | 67.6
44 | APVVKSEPSLPRMR [YJL083W 57-70] | 63.5
45 | ALWAKFFPEKPLNI [YGR024C 111-124] | 75.9
46 | AMESRVAPEIPGLI [YGL130W 4-17] | 45.4
47 | ASFRKTKPPPPLDF [YAL017W 81-94] | 304
48 | AQKLKLLPEEPFQR [YDL001W 74-87] | 3.4
49 | AVGGKWEPGNPIAI [YHR113W 80-93] | 19.6
50 | AVLIRADPLNPKVV [YCR028C 355-368] | 9.5
51 | ATVVKNSPGDPELF [YNL187W 329-342] | 13.3
52 | ALSTKGYPHEPPLL [YGR172C 61-74] | 15.2
53 | APPPKEEPAAPTST [YGR162W 923-936] | 0.6
54 | ATGKRKLPGWPSAD [YIL165C 34-47] | 92.2
55 | ASKHKMFPFNPAKI [YLR115W 531-544] | 16.3
56 | ATKRKTIPVYPPVQ [YCR046C 20-33] | 28.1

Target: T4, Boi2 SH3 (BOI2_YEAST), P39969
Assay: SPOT array

Row | Binder | normalised SPOT signal, Boehringer light units (BLU); mean over the file's lines of this peptide
57 | ATEAKSLPKIPSIP [YPL176C 343-356] | 58.5
58 | APVVKSEPSLPRMR [YJL083W 57-70] | 17.7
59 | ALWAKFFPEKPLNI [YGR024C 111-124] | 18.8
60 | AMESRVAPEIPGLI [YGL130W 4-17] | 0
61 | ASFRKTKPPPPLDF [YAL017W 81-94] | 21.6
62 | AQKLKLLPEEPFQR [YDL001W 74-87] | 16.2
63 | AVGGKWEPGNPIAI [YHR113W 80-93] | 14.1
64 | AVLIRADPLNPKVV [YCR028C 355-368] | -0
65 | ATVVKNSPGDPELF [YNL187W 329-342] | 17
66 | ALSTKGYPHEPPLL [YGR172C 61-74] | 12.6
67 | APPPKEEPAAPTST [YGR162W 923-936] | 3.5
68 | ATGKRKLPGWPSAD [YIL165C 34-47] | 4
69 | ASKHKMFPFNPAKI [YLR115W 531-544] | 1.5
70 | ATKRKTIPVYPPVQ [YCR046C 20-33] | 59.9

Target: T5, Myo5 SH3 (MYO5_YEAST), Q04439
Assay: SPOT array

Row | Binder | normalised SPOT signal, Boehringer light units (BLU); mean over the file's lines of this peptide
71 | ATEAKSLPKIPSIP [YPL176C 343-356] | 137
72 | APVVKSEPSLPRMR [YJL083W 57-70] | 241
73 | ALWAKFFPEKPLNI [YGR024C 111-124] | 154
74 | AMESRVAPEIPGLI [YGL130W 4-17] | 426
75 | ASFRKTKPPPPLDF [YAL017W 81-94] | 169
76 | AQKLKLLPEEPFQR [YDL001W 74-87] | 401
77 | AVGGKWEPGNPIAI [YHR113W 80-93] | 78.4
78 | AVLIRADPLNPKVV [YCR028C 355-368] | 102
79 | ATVVKNSPGDPELF [YNL187W 329-342] | 76.2
80 | ALSTKGYPHEPPLL [YGR172C 61-74] | 139
81 | APPPKEEPAAPTST [YGR162W 923-936] | 117
82 | ATGKRKLPGWPSAD [YIL165C 34-47] | 136
83 | ASKHKMFPFNPAKI [YLR115W 531-544] | 953
84 | ATKRKTIPVYPPVQ [YCR046C 20-33] | 274

Target: T6, Yfr024 SH3 (LSB3_YEAST), P43603
Assay: SPOT array

Row | Binder | normalised SPOT signal, Boehringer light units (BLU); mean over the file's lines of this peptide
85 | ATEAKSLPKIPSIP [YPL176C 343-356] | 39.5
86 | APVVKSEPSLPRMR [YJL083W 57-70] | 512
87 | ALWAKFFPEKPLNI [YGR024C 111-124] | 405
88 | AMESRVAPEIPGLI [YGL130W 4-17] | 517
89 | ASFRKTKPPPPLDF [YAL017W 81-94] | 816
90 | AQKLKLLPEEPFQR [YDL001W 74-87] | 29.1
91 | AVGGKWEPGNPIAI [YHR113W 80-93] | 17.2
92 | AVLIRADPLNPKVV [YCR028C 355-368] | 34.4
93 | ATVVKNSPGDPELF [YNL187W 329-342] | 27.6
94 | ALSTKGYPHEPPLL [YGR172C 61-74] | 26.8
95 | APPPKEEPAAPTST [YGR162W 923-936] | 5.8
96 | ATGKRKLPGWPSAD [YIL165C 34-47] | 3620
97 | ASKHKMFPFNPAKI [YLR115W 531-544] | 214
98 | ATKRKTIPVYPPVQ [YCR046C 20-33] | 204
